According to PMC10683072 (2023):

B1: PDZ3 PDZ3 (protein)
chain: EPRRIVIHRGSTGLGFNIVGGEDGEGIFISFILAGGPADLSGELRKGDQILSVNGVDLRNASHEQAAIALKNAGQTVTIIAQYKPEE
B2: 2xPDZ3 (two tandem repeats of PDZ3) PDZ3 (protein)
chain: B1 chain

Experiments:
KQTSV peptide [1] = molecular target: T1, KQTSV peptide; experiment: diffusion lag time measurement with labeled peptide (Figure S12)
T1 chain: KQTSV

KQTSV peptide [2] = molecular target: T2, KQTSV peptide (tandem dimer of PDZ3); experiment: as above
T2 chain: KQTSV

| Binder | Kd (KQTSV peptide [1]) [µM] | Kd (KQTSV peptide [2]) [µM] |
| --- | --- | --- |
| B1 | 0.67 |  |
| B2 |  | 0.68 |
